# Test results: patent US20220135701A1 (Genentech, published 2022)
# Like-named read-outs stand apart in the source and are kept apart here.
# T1: mouse MerTK on mouse macrophages (mouse, UniProt Q60805 19-994)
# T1 sequence (looked up): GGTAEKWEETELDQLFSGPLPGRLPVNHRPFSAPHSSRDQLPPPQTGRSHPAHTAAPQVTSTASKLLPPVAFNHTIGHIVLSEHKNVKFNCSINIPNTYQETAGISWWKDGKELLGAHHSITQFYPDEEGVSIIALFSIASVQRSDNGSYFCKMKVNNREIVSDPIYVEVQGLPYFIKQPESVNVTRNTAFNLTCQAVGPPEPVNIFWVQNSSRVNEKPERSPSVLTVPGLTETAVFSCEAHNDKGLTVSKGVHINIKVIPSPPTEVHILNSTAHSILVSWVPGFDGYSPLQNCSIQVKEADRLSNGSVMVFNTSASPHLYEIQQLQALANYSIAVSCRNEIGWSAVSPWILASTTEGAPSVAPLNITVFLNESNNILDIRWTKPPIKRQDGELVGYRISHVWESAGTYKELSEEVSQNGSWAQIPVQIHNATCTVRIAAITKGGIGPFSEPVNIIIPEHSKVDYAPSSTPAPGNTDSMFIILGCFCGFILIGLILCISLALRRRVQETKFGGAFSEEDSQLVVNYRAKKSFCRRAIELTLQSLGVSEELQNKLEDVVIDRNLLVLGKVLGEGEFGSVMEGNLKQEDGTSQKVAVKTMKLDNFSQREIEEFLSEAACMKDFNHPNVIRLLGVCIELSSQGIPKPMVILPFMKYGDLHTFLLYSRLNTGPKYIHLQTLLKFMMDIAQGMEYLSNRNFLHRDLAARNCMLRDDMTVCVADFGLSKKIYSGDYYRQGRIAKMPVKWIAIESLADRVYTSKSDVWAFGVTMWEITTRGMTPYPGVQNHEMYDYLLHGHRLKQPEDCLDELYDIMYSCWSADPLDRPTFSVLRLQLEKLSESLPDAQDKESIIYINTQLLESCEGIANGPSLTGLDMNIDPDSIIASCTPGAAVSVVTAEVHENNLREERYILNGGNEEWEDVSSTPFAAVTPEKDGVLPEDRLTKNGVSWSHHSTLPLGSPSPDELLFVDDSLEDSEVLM
# T2: human MerTK on human macrophages (human, UniProt Q12866 21-999)
# T2 sequence: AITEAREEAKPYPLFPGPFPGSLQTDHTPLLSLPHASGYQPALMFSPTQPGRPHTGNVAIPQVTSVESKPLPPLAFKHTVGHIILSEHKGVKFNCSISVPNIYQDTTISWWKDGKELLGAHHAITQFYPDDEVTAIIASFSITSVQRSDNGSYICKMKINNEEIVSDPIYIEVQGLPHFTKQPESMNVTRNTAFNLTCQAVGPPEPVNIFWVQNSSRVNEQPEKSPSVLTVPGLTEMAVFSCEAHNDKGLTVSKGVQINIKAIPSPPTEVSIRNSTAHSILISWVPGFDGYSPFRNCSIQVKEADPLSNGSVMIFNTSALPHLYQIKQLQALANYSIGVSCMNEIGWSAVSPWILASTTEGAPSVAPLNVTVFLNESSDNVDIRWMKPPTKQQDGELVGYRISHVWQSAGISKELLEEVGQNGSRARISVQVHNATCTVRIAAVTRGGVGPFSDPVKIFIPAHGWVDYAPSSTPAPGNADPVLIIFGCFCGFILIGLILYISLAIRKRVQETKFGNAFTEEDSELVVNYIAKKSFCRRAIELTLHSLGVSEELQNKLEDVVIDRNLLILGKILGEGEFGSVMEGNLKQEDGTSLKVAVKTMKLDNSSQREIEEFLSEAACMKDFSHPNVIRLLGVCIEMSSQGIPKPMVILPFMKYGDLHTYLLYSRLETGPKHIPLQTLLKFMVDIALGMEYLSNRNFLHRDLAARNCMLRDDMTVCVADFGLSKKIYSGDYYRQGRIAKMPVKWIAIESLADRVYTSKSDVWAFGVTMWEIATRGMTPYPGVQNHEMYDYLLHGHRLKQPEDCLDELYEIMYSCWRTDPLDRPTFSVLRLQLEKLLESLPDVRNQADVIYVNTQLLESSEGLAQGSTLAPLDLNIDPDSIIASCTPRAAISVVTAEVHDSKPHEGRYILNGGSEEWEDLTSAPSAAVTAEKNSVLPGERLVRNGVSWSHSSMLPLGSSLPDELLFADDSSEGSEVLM
# T3: cynomolgus monkey MerTK (cynomolgus monkey, UniProt A0A2K5V1H9 32-505)
# T3 construct: Soluble analyte in SPR; also called Cyno MerTK
# T3 sequence: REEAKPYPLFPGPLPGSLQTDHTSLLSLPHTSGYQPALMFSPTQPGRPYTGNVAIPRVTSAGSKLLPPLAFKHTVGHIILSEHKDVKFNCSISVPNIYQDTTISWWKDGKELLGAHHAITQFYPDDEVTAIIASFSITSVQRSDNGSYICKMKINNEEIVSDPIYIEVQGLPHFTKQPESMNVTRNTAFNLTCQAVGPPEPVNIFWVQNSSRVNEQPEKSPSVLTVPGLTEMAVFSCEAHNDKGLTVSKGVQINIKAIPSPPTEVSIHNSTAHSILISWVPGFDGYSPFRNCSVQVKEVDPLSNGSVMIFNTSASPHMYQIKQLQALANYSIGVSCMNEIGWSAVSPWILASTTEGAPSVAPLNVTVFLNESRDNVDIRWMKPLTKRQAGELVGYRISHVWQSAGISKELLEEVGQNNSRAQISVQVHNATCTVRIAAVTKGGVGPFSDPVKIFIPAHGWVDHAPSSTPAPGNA
# T4: human MerTK (human, UniProt Q12866 26-499)
# T4 construct: also called HuMER
# T4 sequence: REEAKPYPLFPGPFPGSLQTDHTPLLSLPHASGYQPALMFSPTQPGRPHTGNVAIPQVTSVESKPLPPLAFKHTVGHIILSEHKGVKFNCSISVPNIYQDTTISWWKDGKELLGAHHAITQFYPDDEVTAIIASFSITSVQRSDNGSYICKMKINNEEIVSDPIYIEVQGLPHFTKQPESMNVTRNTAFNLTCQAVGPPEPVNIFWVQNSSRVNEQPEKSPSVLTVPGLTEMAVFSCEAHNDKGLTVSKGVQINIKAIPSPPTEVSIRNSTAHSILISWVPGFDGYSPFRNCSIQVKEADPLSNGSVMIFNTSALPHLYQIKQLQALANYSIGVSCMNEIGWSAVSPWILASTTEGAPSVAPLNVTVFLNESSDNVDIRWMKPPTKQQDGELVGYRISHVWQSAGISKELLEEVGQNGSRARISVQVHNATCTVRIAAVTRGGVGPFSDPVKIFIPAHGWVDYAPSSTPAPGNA
# B1: h13B4.v16 (antibody, V domains shown)
# VH: EVQLVESGEGLVQPGGSLRLSCAASGFSLSSYAMGWVRQAPGKGLEYVGIINSYGNTYYANWAKGRFTISRDNSKNTVYLQMGSLRAEDMAVYYCARDPGVSSNLWGRGTLVTVSS
# VL: DIQMTQSPSTLSASVGDRVTITCQASQNIYSGLAWYQQKPGKAPKLLIYGASKLASGVPSRFSGSGSGTEFTLTISSLQPDDFATYYCQATYYSSNSVAFGGGTKVEIK
# notes: Humanized, human IgG1; also called 13B4 Fully Humanized; 13B4 Humanized polished mAb
# Assays:
# [1] = target: T1, mouse MerTK on mouse macrophages; test: cell-based or functional assay
# [2] = target: T2, human MerTK on human macrophages; test: cell-based or functional assay
# cynomolgus monkey MerTK = target: T3, cynomolgus monkey MerTK; test: SPR BIAcore T200, Ab captured, 37C
# Experimental: (§1) All binding affinity determinations were obtained using Surface Plasmon Resonance (SPR) measurements from a BIAcore™-T200 instrument. Briefly, each rabbit or humanized antibody was captured to achieve approximately 100 RU (Response Units). Then, 3-fold serial dilutions of MerTK from various species (0.4 nM to 100 nM) diluted in HBS-EP buffer (0.01M HEPES pH 7.4, 0.15M NaCl, 3 mM EDTA and 0.05% v/v surfactant P20) was injected into the BIAcore™-T200 instrument at 25° C. or 37° C. with a flow rate of 30 μl/min. Association rates (kₒₙ) and dissociation rates (koff) were calculated using a simple one-to-one Langmuir binding model (BIAcore T200 evaluation software version 2.0). The equilibrium dissociation constant (KD) was calculated as the ratio koff/kₒₙ.
# human MerTK [3] = target: T4, human MerTK; test: SPR BIAcore T200, Ab captured, 37C
# Experimental: as §1
# human MerTK [4] = target: T4, human MerTK; test: SPR (BIAcore kinetic screen), h13B4.v16 captured on protein A chip, hMerTK as analyte, 25°C, 1:1 binding model [Cont.]
# Excerpt: (§2) For binding affinity determinations of anti-MerTK antibodies of the present disclosure as a control along with commercial MerTK antibodies, Surface Plasmon Resonance (SPR) measurement with a BIAcore™-T200 instrument was used. First, two rabbit antibodies (Y323 and 10g86_D21F11) and the anti-MerTK antibody h13B4.v16 were captured by protein A sensor chip, and eight mouse antibodies (A3KCAT,2D2,7E5G1,7N-20,590H11G1E3, MAB891, MAB8911 and MAB8912-100) were captured by goat anti-mouse IgGs sensor chip respectively on each flow cell to achieve approximately 100RU. Three-fold serial dilutions of human MerTK (0.4 nM to 100 nM) were injected in HBS-EP buffer (0.01M HEPES pH 7.4, 0.15M NaCl, 3 mM EDTA and 0.05% v/v surfactant P20) at 25° C. with a flow rate of 50 μl/min to record the binding response as a function of time. The sensorgram was fitted with one-to-one Langmuir binding model to calculate association rates (kₒₙ) and dissociation rates (koff) (BIAcore T200 evaluation software version 2.0). The binding affinity (equilibrium dissociation constant (KD)) was calculated as the ratio koff/kₒₙ.
# [5] = target: T2, human MerTK on human macrophages; test: cell-based or functional assay; remark: listed apart in the source
# [6] = target: T2, human MerTK on human macrophages; test: cell-based or functional assay; remark: listed apart in the source
# human MerTK [7] = target: T4, human MerTK; test: SPR BIAcore T200, Ab captured on protein A chip, 25C
# Excerpt: as §2
Molecule,pAKT levels in macrophages incubated with the ligand [1],"IC50 (nM), efferocytosis by human macrophages, Average (3 Donors) [2]","IC50 (nM), efferocytosis by human macrophages, Donor A [2]","IC50 (nM), efferocytosis by human macrophages, Donor B [2]","IC50 (nM), efferocytosis by human macrophages, Donor C [2]","Max Inhibition (%), efferocytosis by human macrophages, Average (3 Donors) [2]","Max Inhibition (%), efferocytosis by human macrophages, Donor A [2]","Max Inhibition (%), efferocytosis by human macrophages, Donor B [2]","Max Inhibition (%), efferocytosis by human macrophages, Donor C [2]",Kd (cynomolgus monkey MerTK),Kd (human MerTK [3]),Kd (human MerTK [4]),koff (human MerTK [4]),kon (human MerTK [4]),"IC50 (nM), efferocytosis by human macrophages, Average (3 Donors) [5]","fold potency in inhibiting human macrophage phagocytosis, against h10F7.v16 [6]",Kd (human MerTK [7])
recombinant human GAS6-Fc protein (from UniProt Q14393 31-678) (Fc fusion),84 pM,–,–,–,–,–,–,–,–,–,–,–,–,–,–,–,–
B1,–,0.08 nM,0.07 nM,0.08 nM,0.09 nM,83%,91%,82%,77%,5700 pM,5100 pM,1630 pM,0.000151 s⁻¹,92400 M⁻¹ s⁻¹,0.08 nM,5.2 fold,1600 pM
